Assay [1] concerns the target Alexa Fluor 488-labeled OmpT (E. coli) (UniProt P09169). Briefly: MST.
Another assay concerns the target T1, SurA WT (E. coli, UniProt P0ABZ6 21-428).
T1 sequence (looked up): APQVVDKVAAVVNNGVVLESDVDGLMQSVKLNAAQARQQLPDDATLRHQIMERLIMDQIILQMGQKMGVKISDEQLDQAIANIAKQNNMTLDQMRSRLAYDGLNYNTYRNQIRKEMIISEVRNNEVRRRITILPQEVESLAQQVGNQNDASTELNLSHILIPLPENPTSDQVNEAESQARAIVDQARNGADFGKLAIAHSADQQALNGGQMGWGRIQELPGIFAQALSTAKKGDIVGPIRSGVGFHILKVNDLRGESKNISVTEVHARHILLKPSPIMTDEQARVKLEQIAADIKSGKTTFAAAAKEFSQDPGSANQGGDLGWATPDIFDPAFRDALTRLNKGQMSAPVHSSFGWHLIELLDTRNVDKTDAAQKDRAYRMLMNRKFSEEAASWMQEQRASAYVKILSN
As to the kind of experiment: MST.

The Kd is the free concentration of one partner at which half of the binding sites on the other are occupied at equilibrium, for simple one-to-one binding. High values mean weaker binding, low ones tighter binding.

“SurA WT (from UniProt P0ABZ6 21-428) (natural protein)” yielded a Kd in assay [1] of 9.3 µM.

B1: Alexa Fluor 488-labeled tOmpA (domain or fragment)
chain: APKDNTWYTGAKLGWSQYHDTGFINNNGPTHENQLGAGAFGGYQVNPYVGFEMGYDWLGRMPYKGSVENGAYKAQGVQLTAKLGYPITDDLDIYTRLGGMVWRADTKSNVYGKNHDTGVSPVFAGGVEYAITPEIATRLEYQWTNNIGDAHTIGTRPDNGMLSLGVSYRFG
modifications: Alexa Fluor 488 C5 maleimide on the N-terminal Cys
Regarding B1, binding with SurA WT was put at a Kd of 1.8 ± 0.1 µM.
